The text below walks through data of the supplement of paper PMC9112550, “Optimization of the antimicrobial peptide Bac7 by deep mutational scanning” (BMC Biology, 2022).

In the series the test system is Escherichia coli TOP10. Put plainly: shrunken log2 fold change of peptide-encoding DNA abundance (4.5 h post-induction vs induction); higher = less antimicrobial activity (less host growth inhibition). The settings on record: time post-induction: 4.5 h; library: site-saturation at positions 5, 18, 19, 20.
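Further: peptides expressed intracellularly from a pBAD plasmid library in pooled LB shake-flask culture, induced with 0.3% L-arabinose, DNA abundance read by NGS, three biological replicates, DESeq2 with apeglm shrinkage.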

RRIRLRPPRLPRPRPRPEYAPRP: the “shrunken log2 fold change” value is -0.000852.
On to RRIRNRPPRLPRPRPRPFVRPRP, for which the “shrunken log2 fold change” value was -0.0373.
As to RRIRARPPRLPRPRPRPNDLPRP, the “shrunken log2 fold change” value came to 0.172.
As for RRIRLRPPRLPRPRPRPDASPRP, the “shrunken log2 fold change” value was 0.101.
Take RRIRCRPPRLPRPRPRPNNTPRP: the “shrunken log2 fold change” value was -0.737.
As to RRIRVRPPRLPRPRPRPWWHPRP, the “shrunken log2 fold change” value was 0.0994.
Take RRIRCRPPRLPRPRPRPKGTPRP: the “shrunken log2 fold change” value amounted to 0.0259.
With RRIRLRPPRLPRPRPRPNLCPRP, the “shrunken log2 fold change” value amounted to 0.119.
As to RRIRQRPPRLPRPRPRPAHYPRP, the “shrunken log2 fold change” value is -0.332.
Consider RRIRCRPPRLPRPRPRPCNPPRP, for which the “shrunken log2 fold change” value is -0.23.
As to RRIRTRPPRLPRPRPRPTHDPRP, the “shrunken log2 fold change” value was determined as 0.139.
On to RRIRRRPPRLPRPRPRPRIPPRP, for which the “shrunken log2 fold change” value was 0.209.
For the sequence RRIRGRPPRLPRPRPRPAPPPRP, the “shrunken log2 fold change” value was 1.07.
Then RRIRHRPPRLPRPRPRPNKQPRP, with -0.545.
RRIRARPPRLPRPRPRPEIPPRP: the “shrunken log2 fold change” value turned out to be 0.3.
In the case of RRIRPRPPRLPRPRPRPSAAPRP, the “shrunken log2 fold change” value turned out to be 0.487.
To RRIRGRPPRLPRPRPRPDFDPRP belongs 0.612; to RRIRQRPPRLPRPRPRPCDCPRP, -0.0243.
Then RRIRHRPPRLPRPRPRPQVMPRP, with -0.0437; and RRIRCRPPRLPRPRPRPSNNPRP, with -0.707.
Turning to RRIRDRPPRLPRPRPRPYQPPRP, the “shrunken log2 fold change” value was -0.0769.
For the sequence RRIRMRPPRLPRPRPRPIVVPRP, the “shrunken log2 fold change” value was determined as 0.0203.
Regarding RRIRYRPPRLPRPRPRPRLEPRP, the “shrunken log2 fold change” value was -0.0441.
RRIRNRPPRLPRPRPRPKHKPRP: the “shrunken log2 fold change” value is -0.0428.
Regarding RRIRRRPPRLPRPRPRPSQLPRP, the “shrunken log2 fold change” value was 0.448.
To RRIRRRPPRLPRPRPRPTDEPRP belongs 0.355; to RRIRARPPRLPRPRPRPPNRPRP, 0.499.
For RRIRMRPPRLPRPRPRPPQLPRP, the “shrunken log2 fold change” value was 0.279.
RRIRIRPPRLPRPRPRPYTNPRP: the “shrunken log2 fold change” value is -0.957.
Then RRIRNRPPRLPRPRPRPPFYPRP, with -0.403; and RRIRDRPPRLPRPRPRPSMNPRP, with -0.152; and RRIRPRPPRLPRPRPRPRIPPRP, with 0.243.
Then RRIRERPPRLPRPRPRPKNQPRP, with -0.281; and RRIRRRPPRLPRPRPRPPNLPRP, with 0.593; and RRIRPRPPRLPRPRPRPADGPRP, with 0.297.
With RRIRHRPPRLPRPRPRPQASPRP, the “shrunken log2 fold change” value was determined as 0.0479.
Regarding RRIRIRPPRLPRPRPRPQWWPRP, the “shrunken log2 fold change” value worked out at 0.0271.
Regarding RRIRNRPPRLPRPRPRPSMTPRP, the “shrunken log2 fold change” value was 0.0898.
As to RRIRKRPPRLPRPRPRPLRSPRP, the “shrunken log2 fold change” value is 0.962.
For the sequence RRIRIRPPRLPRPRPRPEIQPRP, the “shrunken log2 fold change” value was -0.171.
Consider RRIRQRPPRLPRPRPRPRHRPRP, for which the “shrunken log2 fold change” value stood at 0.16.
As to RRIRARPPRLPRPRPRPQEMPRP, the “shrunken log2 fold change” value was -0.0254.
Then RRIRHRPPRLPRPRPRPQPIPRP, with -0.13; and RRIRFRPPRLPRPRPRPYKWPRP, with -0.298; and RRIRVRPPRLPRPRPRPSQRPRP, with -0.0119.
In the case of RRIRARPPRLPRPRPRPDVVPRP, the “shrunken log2 fold change” value is -0.101.
Then RRIRTRPPRLPRPRPRPQCWPRP, with -0.19; and RRIRFRPPRLPRPRPRPQYLPRP, with -0.329; and RRIRLRPPRLPRPRPRPSIRPRP, with -0.727.
Consider RRIRSRPPRLPRPRPRPFVDPRP, for which the “shrunken log2 fold change” value was -0.228.
Then RRIRARPPRLPRPRPRPVLCPRP, with 0.43; and RRIRRRPPRLPRPRPRPTIWPRP, with 0.251; and RRIRWRPPRLPRPRPRPYCAPRP, with -0.281.
As for RRIRIRPPRLPRPRPRPYSPPRP, the “shrunken log2 fold change” value is -0.0324.
Consider RRIRPRPPRLPRPRPRPLCTPRP, for which the “shrunken log2 fold change” value was 1.09.
Then RRIRERPPRLPRPRPRPTWLPRP, with 0.289; and RRIRDRPPRLPRPRPRPKDPPRP, with -0.00415.
To RRIRLRPPRLPRPRPRPGFEPRP belongs 0.168; to RRIRWRPPRLPRPRPRPDGMPRP, 0.0134; to RRIRWRPPRLPRPRPRPRAHPRP, 0.167.
For the sequence RRIRLRPPRLPRPRPRPVRRPRP, the “shrunken log2 fold change” value worked out at 0.276.
As to RRIRARPPRLPRPRPRPRYCPRP, the “shrunken log2 fold change” value was -0.15.
With RRIRQRPPRLPRPRPRPLIWPRP, the “shrunken log2 fold change” value is 0.855.
Consider RRIRGRPPRLPRPRPRPNCSPRP, for which the “shrunken log2 fold change” value was 0.99.
Consider RRIRLRPPRLPRPRPRPLCNPRP, for which the “shrunken log2 fold change” value was -0.453.
As for RRIRWRPPRLPRPRPRPQLWPRP, the “shrunken log2 fold change” value came to 1.02.
RRIRWRPPRLPRPRPRPETKPRP: the “shrunken log2 fold change” value was determined as 0.285.
Turning to RRIRYRPPRLPRPRPRPSACPRP, the “shrunken log2 fold change” value was -0.301.
RRIRSRPPRLPRPRPRPQQEPRP: the “shrunken log2 fold change” value was -0.0806.
With RRIRQRPPRLPRPRPRPPLSPRP, the “shrunken log2 fold change” value was 0.0729.
Then RRIRDRPPRLPRPRPRPYFQPRP, with -0.236; and RRIRLRPPRLPRPRPRPRLCPRP, with 0.35; and RRIRCRPPRLPRPRPRPWGYPRP, with -0.372.
As for RRIRARPPRLPRPRPRPKHDPRP, the “shrunken log2 fold change” value turned out to be 0.263.
Then RRIRNRPPRLPRPRPRPMPHPRP, with -0.626; and RRIRWRPPRLPRPRPRPHKAPRP, with -0.000946; and RRIRSRPPRLPRPRPRPKQQPRP, with 0.741.
Consider RRIRMRPPRLPRPRPRPWFAPRP, for which the “shrunken log2 fold change” value was determined as 0.18.
As for RRIRHRPPRLPRPRPRPCCPPRP, the “shrunken log2 fold change” value is -0.243.
Take RRIRDRPPRLPRPRPRPYGTPRP: the “shrunken log2 fold change” value was -0.234.
Then RRIRNRPPRLPRPRPRPKHGPRP, with 0.0401; and RRIRPRPPRLPRPRPRPLMNPRP, with -0.47; and RRIRHRPPRLPRPRPRPVNNPRP, with -1.17.
Then RRIRHRPPRLPRPRPRPFTMPRP, with -0.349; and RRIRMRPPRLPRPRPRPFQAPRP, with 0.242.
Turning to RRIRYRPPRLPRPRPRPQFHPRP, the “shrunken log2 fold change” value is -1.09.
As for RRIRTRPPRLPRPRPRPANQPRP, the “shrunken log2 fold change” value is -0.102.
On to RRIRERPPRLPRPRPRPIHQPRP, for which the “shrunken log2 fold change” value was -1.22.
Turning to RRIRFRPPRLPRPRPRPPPTPRP, the “shrunken log2 fold change” value amounted to 1.39.
Consider RRIRFRPPRLPRPRPRPGLCPRP, for which the “shrunken log2 fold change” value turned out to be 0.606.
RRIRRRPPRLPRPRPRPGCFPRP: the “shrunken log2 fold change” value stood at 0.5.
Consider RRIRHRPPRLPRPRPRPARRPRP, for which the “shrunken log2 fold change” value came out at 0.143.
Turning to RRIRCRPPRLPRPRPRPEMGPRP, the “shrunken log2 fold change” value stood at 0.0517.
Regarding RRIRPRPPRLPRPRPRPGPIPRP, the “shrunken log2 fold change” value worked out at 0.148.
Take RRIRHRPPRLPRPRPRPIQTPRP: the “shrunken log2 fold change” value is -0.338.
Take RRIRKRPPRLPRPRPRPEPEPRP: the “shrunken log2 fold change” value amounted to 1.34.
Turning to RRIRNRPPRLPRPRPRPGCCPRP, the “shrunken log2 fold change” value was -0.0641.
Turning to RRIRYRPPRLPRPRPRPSQTPRP, the “shrunken log2 fold change” value is -0.0989.
Turning to RRIRCRPPRLPRPRPRPDQKPRP, the “shrunken log2 fold change” value worked out at 0.0192.
Consider RRIRERPPRLPRPRPRPGNTPRP, for which the “shrunken log2 fold change” value was -0.089.
In the case of RRIRLRPPRLPRPRPRPEPGPRP, the “shrunken log2 fold change” value worked out at 0.35.
As to RRIRHRPPRLPRPRPRPLPNPRP, the “shrunken log2 fold change” value was -0.156.
In the case of RRIRCRPPRLPRPRPRPSQRPRP, the “shrunken log2 fold change” value is -0.54.
For RRIRERPPRLPRPRPRPSDYPRP, the “shrunken log2 fold change” value is -0.627.
With RRIRWRPPRLPRPRPRPKIYPRP, the “shrunken log2 fold change” value is -0.0902.
To RRIRTRPPRLPRPRPRPSPCPRP belongs -0.0588; to RRIRKRPPRLPRPRPRPCAWPRP, 0.953.
RRIRPRPPRLPRPRPRPAEYPRP: the “shrunken log2 fold change” value was -0.565.
Take RRIRVRPPRLPRPRPRPPLHPRP: the “shrunken log2 fold change” value was found to be 0.128.
As for RRIRIRPPRLPRPRPRPYYWPRP, the “shrunken log2 fold change” value is -0.449.
Take RRIRWRPPRLPRPRPRPIWLPRP: the “shrunken log2 fold change” value came to 0.211.
As to RRIRARPPRLPRPRPRPRDHPRP, the “shrunken log2 fold change” value is 0.158.
Regarding RRIRSRPPRLPRPRPRPFWHPRP, the “shrunken log2 fold change” value was -0.0146.
As for RRIRYRPPRLPRPRPRPWMPPRP, the “shrunken log2 fold change” value is -0.417.
As for RRIRKRPPRLPRPRPRPFRWPRP, the “shrunken log2 fold change” value turned out to be 0.0626.
As to RRIRTRPPRLPRPRPRPDGLPRP, the “shrunken log2 fold change” value was 0.0665.
Turning to RRIRYRPPRLPRPRPRPFVYPRP, the “shrunken log2 fold change” value is -1.51.
Then RRIRERPPRLPRPRPRPSLPPRP, with -0.19; and RRIRDRPPRLPRPRPRPTIAPRP, with 0.521; and RRIRYRPPRLPRPRPRPIYIPRP, with -0.673.
To RRIRKRPPRLPRPRPRPCHYPRP belongs -0.117; to RRIRDRPPRLPRPRPRPFNAPRP, -0.0419; to RRIRKRPPRLPRPRPRPGCDPRP, 0.826.
To RRIRQRPPRLPRPRPRPHGQPRP belongs 0.184; to RRIRDRPPRLPRPRPRPARYPRP, 0.0754.
